Experiment [1] deals with T1, Galectin-3 (Biolegend) (Mus musculus (Mouse), UniProt P16110 2-264).
T1 construct: The sentence reads 'recombinant mouse Galectin-9 ..., Galectin-3, or Galectin-4'; whether 'mouse' also applies to Galectin-3 is not clear
Nature of the experiment: ELISA, plate coated with Galectin-3, Dectin-1 IgG Fc at 2.5 µg/ml (concentration from paragraph 191, not on the sheet), detection with anti-IgG-HRP [cont.) I]. As to the method: (§1) To investigate if Galectin-9 can bind with Dectin-1, Protein G-magnet beads (2 ml; Dynabeads) were loaded with Dectin-1 IgG Fc (1 mg) or control IgG Fc before washing and blocking. Subsequently, beads were incubated with recombinant Galectin-9 ([…]; R&D Systems) for 30 min, washed, and stained with PE-conjugated anti-Galectin-9 (Biolegend, San Diego Calif.). Galectin-9 specific staining was determined by flow cytometry. To investigate the interaction between Galectin-9 and Dectin-1 by ELISA, plates (Maxisorp, Nunc, St. Louis, Mo.) were coated with recombinant mouse Galectin-9 ([…]; R&D Systems, Minneapolis, Minn.), Galectin-3, or Galectin-4 (both […]; Biolegend) for 16 hours at 4° C., blocked with 1% BSA/PBS for 1 hour, and incubated with increasing doses of Dectin-1 IgG Fc or control IgG Fc for 2 hours. The Galectin-bound Dectin-1 IgG Fc was detected with anti-IgG-HRP. […] Bead-bound precipitates were resuspended with loading buffer, resolved by SDS-PAGE under reduced conditions for western blotting using mAbs specific for Galectin-9. […] Dectin-1 signaling was measured by detection of secreted embryonic alkaline phosphatase. […] Syk phosphorylation was measured by flow cytometry at 3 hours.
For orientation: ELISA stands for enzyme-linked immunosorbent assay.

Experiment [2] has as its target T2, Galectin-4 (Biolegend) (Mus musculus (Mouse), UniProt Q8K419 1-326).
T2 construct: The sentence reads 'recombinant mouse Galectin-9 ..., Galectin-3, or Galectin-4'; whether 'mouse' also applies to Galectin-4 is not clear
T2 sequence: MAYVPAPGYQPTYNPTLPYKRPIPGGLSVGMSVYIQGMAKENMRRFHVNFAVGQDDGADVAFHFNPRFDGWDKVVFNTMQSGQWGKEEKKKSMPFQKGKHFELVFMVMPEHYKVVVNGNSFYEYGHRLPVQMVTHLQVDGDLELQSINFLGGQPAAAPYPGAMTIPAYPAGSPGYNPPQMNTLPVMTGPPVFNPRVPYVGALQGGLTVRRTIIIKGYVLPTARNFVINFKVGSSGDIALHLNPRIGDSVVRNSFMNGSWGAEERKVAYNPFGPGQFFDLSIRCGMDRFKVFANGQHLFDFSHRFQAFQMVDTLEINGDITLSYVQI
The experiment can be described thus: ELISA, plate coated with Galectin-4, Dectin-1 IgG Fc at 2.5 µg/ml (concentration from paragraph 191, not on the sheet), detection with anti-IgG-HRP [cont.) I]. As to the method:
as §1

T1 sequence (P16110 2-264 limits assumed): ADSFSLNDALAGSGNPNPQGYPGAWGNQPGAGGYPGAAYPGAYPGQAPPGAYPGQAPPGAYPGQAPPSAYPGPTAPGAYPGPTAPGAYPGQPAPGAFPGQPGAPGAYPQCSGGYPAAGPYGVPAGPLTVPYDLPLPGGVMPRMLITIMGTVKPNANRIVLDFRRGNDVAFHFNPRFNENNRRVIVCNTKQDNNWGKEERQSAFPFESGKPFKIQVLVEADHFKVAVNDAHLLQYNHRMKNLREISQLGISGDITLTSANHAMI

B1: human IgG Fc-conjugated Dectin-1 fusion protein (murine Dectin-1 IgG Fc; fc-mdec1a, InvivoGen) (Fc fusion, mouse, UniProt Q6QLQ4 69-244, looked up)
chain: EYGHNSGRNPEEKDNFLSRNKENHKPTESSLDEKVAPSKASQTTGGFSQPCLPNWIMHGKSCYLFSFSGNSWYGSKRHCSQLGAHLLKIDNSKEFEFIESQTSSHRINAFWIGLSRNQSEGPWFWEDGSAFFPNSFQVRNTAPQESLLHNCVWIHGSEVYNQICNTSSYSICEKEL
notes: Bought reagent (fc-mdec1a; InvivoGen); also called Dectin-1 Fc; not shown: human IgG Fc
Take B1: the binding result in experiment [1] and in experiment [2] was “no binding (tested: 2.5 µg/ml)” in each case.
